Measured values reported in patent US12344663B2, “Anti-C3 antibodies and antigen-binding fragments thereof and their uses for treating eye or ocular diseases” (CDR-Life AG, priority 2021, dated 2025).

Legend:
Alternative Pathway = experiment: WEISLAB Complement system Screen, alternative pathway MAC (C5b-C9) formation; format: biochemical, human; conditions: human serum; read-out: IC50 (nM) Alternative Pathway MAC deposition
Procedure: (§1) To identify antibodies that block all 3 complement pathways, antibodies are screened using an enzyme immunoassay for the qualitative determination of functional classical, lectin and alternative complement pathways in human serum using the WEISLAB® Complement system Screen (Svar Life Science AB, Malmö, Sweden).
(§2) To monitor inhibition of the complement system in human serum, the scFv of the invention or the comparator molecules are tested using an enzyme immunoassay for the qualitative determination of functional classical, lectin and alternative complement pathways in human serum using the WEISLAB® Complement system Screen (Svar Life Science AB, Malmö, Sweden), following the supplier's instructions. The amount of C5b-C9 neoantigen generated is proportional to the functional activity of complement pathways. The scFv of the invention and the comparator molecules are tested in a concentration response curve and the IC50 for the inhibition is calculated using the GraphPadPrism software and a non-linear, 4 parameters curve regression.

Lectin Pathway = experiment: WEISLAB Complement system Screen, lectin pathway MAC (C5b-C9) formation; format: biochemical, human; conditions: human serum; read-out: IC50 (nM) Lectin Pathway MAC deposition
Procedure: as §1, §2

[1] = Viscosity at high concentrations, cone-plate-rheometer; format: physicochemical; conditions: 20° C., shear-rate 1000 s^−1; for Viscosity [mPa * s] Fully formulated at 150 g/L: 10 mM His pH 5.5, 275 mM sucrose, 0.02% w/v Polysorbate20; for Viscosity [mPa * s] Minimal buffer at 185 g/L: 10 mM His pH 5.5
Procedure: Viscosity measurements are performed with the samples prepared for the storage stability study. In addition to the fully formulated samples (10 mM His pH 5.5, 275 mM sucrose, 0.02% w/v Polysorbate20), viscosity of each candidate is also measured in a minimal formulation (10 mM histidine pH 5.5). This is performed to evaluate the drug substance processability (e.g., filtration, pumping, diafiltration, etc.) of the candidates up to 125% of the final drug product concentration of 150 mg/ml.
Viscosity is measured at 20° C. at a shear-rate of 1000 s^−1 using a cone-plate-rheometer. Briefly, a stepwise increase of the shear rate up to 1,000 s^−1 is done collecting 100 data points, followed by a further increase of the shear rate up to 2000 s^−1, collecting another 10 data points. Finally, a stepwise decrease of the shear rate down to starting rate is done. Good drug product handling properties for filling and syringeability have been observed for all candidates

human C3 P314L = biological target: T1, human C3 P314L (Homo sapiens, UniProt P01024, P314L); experiment: SPR (Biacore T100) binding to C3 SNP1 P314L; conditions: for Kd: Table 20, SPR; for kd C3 SNP1 P314L: off-rate; for ka C3 SNP1 P314L: on-rate
T1 construct: 6×His (N); made in house; host or cells: CHO (ExpiFectamine CHO Expression Kit)
Procedure: The kinetic parameters of the candidates are determined using a surface plasmon resonance (SPR) and Biacore T100 device. C3 and different variants thereof (Table 19) are immobilized as a ligand on a HC30M SPR sensor chip (XanTec bionanalytics, Germany) using EDC/[…] linking chemistry. Five increasing concentrations of each molecule (analyte) are consecutively injected using the single cycle kinetics (SCK) mode to determine the kinetic parameters. Regeneration between the candidates is done with 10 mM glycine*HCl, 2 M NaCl, pH 3.5. The data is fitted to a 1:1 Langmuir binding model and the kinetic parameters of on-rate (ka), off-rate (kd), and affinity […] were determined.
Single nucleotide polymorphism (SNP) in C3 has been observed across the population and certain SNPs were identified in genome-wide association studies (GWAS) to correlate with an increased risk to develop AMD. […] Very rare variants, which occur in less that 2.5% of the population include K155Q, R735W, S1619W, K65Q and R161W.
Proteins are expressed with N-terminal 6×His tag and purified using a HisTrap Excel HP column (GE Healthcare), followed by a size-exclusion chromatography step (SUPERDEX®20010/300GL; GE Healthcare).

[2] = Storage stability at 150 mg/ml, oligomerization by SE-HPLC; format: physicochemical; conditions: decrease in monomeric content versus start
Procedure: Clone I, clone II and clone III are tested for storage stability. Samples are concentrated to 150 mg/ml (Vivaspin20 centrifugal device, 5 kDa MWCO at 3800×g) and stored at 25° C. and 40° C. for up to 4 weeks. Samples are analyzed for oligomerization (SE-HPLC) and chemical degradation (IEX-HPLC). The starting monomeric purity as determined by SE-HPLC was 99.96% for each clone. The starting charge purity, as determined by IEX-HPLC was 98.07%, 97.16% and 96.76%, respectively for clone I, II and III.

T1 sequence (P01024 23-1663 P314L): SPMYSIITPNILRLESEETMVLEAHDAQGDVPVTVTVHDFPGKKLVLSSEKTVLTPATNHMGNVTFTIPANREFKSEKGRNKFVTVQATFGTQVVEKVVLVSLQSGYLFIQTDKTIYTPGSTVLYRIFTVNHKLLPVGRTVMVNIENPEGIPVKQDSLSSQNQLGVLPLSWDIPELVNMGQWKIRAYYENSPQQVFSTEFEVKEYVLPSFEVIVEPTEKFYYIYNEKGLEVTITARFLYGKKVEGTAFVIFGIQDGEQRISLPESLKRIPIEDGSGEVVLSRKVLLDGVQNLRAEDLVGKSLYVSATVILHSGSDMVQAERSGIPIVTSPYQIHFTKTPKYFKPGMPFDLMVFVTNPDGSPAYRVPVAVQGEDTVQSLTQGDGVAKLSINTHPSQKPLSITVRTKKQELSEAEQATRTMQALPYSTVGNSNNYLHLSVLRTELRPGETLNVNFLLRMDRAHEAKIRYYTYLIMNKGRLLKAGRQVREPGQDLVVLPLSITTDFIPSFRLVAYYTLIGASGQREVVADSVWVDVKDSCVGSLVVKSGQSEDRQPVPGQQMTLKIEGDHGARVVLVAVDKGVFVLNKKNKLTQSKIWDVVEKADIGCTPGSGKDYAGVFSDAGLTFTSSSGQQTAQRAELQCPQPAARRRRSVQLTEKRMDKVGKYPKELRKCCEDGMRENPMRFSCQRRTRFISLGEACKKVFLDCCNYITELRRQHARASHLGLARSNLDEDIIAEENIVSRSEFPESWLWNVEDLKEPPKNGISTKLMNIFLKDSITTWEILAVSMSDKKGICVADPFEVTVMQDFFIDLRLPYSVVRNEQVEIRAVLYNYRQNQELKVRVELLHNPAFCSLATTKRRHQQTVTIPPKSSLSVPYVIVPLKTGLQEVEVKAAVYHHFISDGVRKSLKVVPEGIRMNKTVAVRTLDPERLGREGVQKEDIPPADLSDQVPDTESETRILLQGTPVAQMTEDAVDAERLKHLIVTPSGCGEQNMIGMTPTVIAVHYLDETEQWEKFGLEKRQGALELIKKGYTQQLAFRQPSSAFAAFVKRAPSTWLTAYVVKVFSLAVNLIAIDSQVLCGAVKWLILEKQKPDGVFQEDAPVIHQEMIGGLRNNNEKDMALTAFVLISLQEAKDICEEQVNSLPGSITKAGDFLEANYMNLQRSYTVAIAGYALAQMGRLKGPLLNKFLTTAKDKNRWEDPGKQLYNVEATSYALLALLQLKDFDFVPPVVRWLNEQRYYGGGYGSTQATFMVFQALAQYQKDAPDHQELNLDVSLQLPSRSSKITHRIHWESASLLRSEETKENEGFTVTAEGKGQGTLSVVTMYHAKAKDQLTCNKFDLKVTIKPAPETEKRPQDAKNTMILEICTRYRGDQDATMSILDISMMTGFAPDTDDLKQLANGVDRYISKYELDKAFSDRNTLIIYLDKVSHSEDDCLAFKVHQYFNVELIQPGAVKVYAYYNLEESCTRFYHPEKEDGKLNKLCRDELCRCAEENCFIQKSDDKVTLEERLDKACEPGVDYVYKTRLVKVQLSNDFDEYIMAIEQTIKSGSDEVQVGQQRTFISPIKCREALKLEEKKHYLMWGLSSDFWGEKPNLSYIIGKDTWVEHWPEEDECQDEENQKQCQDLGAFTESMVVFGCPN

B1: Clone I: humanized anti-C3 scFv, VH SEQ ID NO: 20, VL SEQ ID NO: 21; scFv SEQ ID NO: 26 or 27 (antibody, V domains shown)
VH: QVQLVESGGGSVQPGRSLRLSCAASGFTFSNYAMNWVRQAPGKGLEWVAVISYDGSNKYYADSVKGRFTISRDNSKNTLYLQMNSLRAEDTASYYCARAVGYHHARLDPWGCGTSVTVSS
VL: QLVLTQSPSASASLGASVKLTCTLSSAHKTYTIDWYQQQPEKCPRYLMQLKSDGSYTKGSGIPDRFSGSSSGAERYLTISSLQSEDEADYYCGTEGVGGYVFGGGTKLTVLG
modifications: VH; VL
IC50 (Alternative Pathway): 344 nM | IC50 (Lectin Pathway): 67 nM | Viscosity [mPa * s] Fully formulated at 150 g/L [1]: 3.9 mPa * s | Viscosity [mPa * s] Minimal buffer at 185 g/L [1]: 5.4 mPa * s | Kd (human C3 P314L): 0.14 nM | kd C3 SNP1 P314L (human C3 P314L): 4.2e-05 s⁻¹ | ka C3 SNP1 P314L (human C3 P314L): 300000 M⁻¹ s⁻¹ | Storage stability, SEC 4 weeks at 25° C. [D %] [2]: 0.06 D % | Storage stability, SEC 4 weeks at 40° C. [D %] [2]: 0.37 D %

B2: Clone II: humanized anti-C3 scFv, VH SEQ ID NO: 22, VL SEQ ID NO: 23; scFv SEQ ID NO: 28 or 29 (antibody, V domains shown)
VH: QVQLVESGGGSVQPGRSLRLSCAASGFTFSNYAMNWVRQAPGKGLEWVAIINVGGGTNYADSVKGRFTISRDNSKNTLYLQMNSLRAEDTASYYCARAVGYHHARLDPWGCGTSVTVSS
VL: QLVLTQSPSASASLGASVKLTCTLSSAHKTYTIDWYQQQPEKCPRYLMQLKSDGSYTKGSGIPDRFSGSSSGAERYLTISSLQSEDEADYYCGTEGVGGYVFGGGTKLTVLG
modifications: VH; VL
IC50 (Alternative Pathway): 360 nM | IC50 (Lectin Pathway): 71 nM | Viscosity [mPa * s] Fully formulated at 150 g/L [1]: 3.9 mPa * s | Viscosity [mPa * s] Minimal buffer at 185 g/L [1]: 4.5 mPa * s | Kd (human C3 P314L): < 0.04 nM | kd C3 SNP1 P314L (human C3 P314L): <1.1e-05 s⁻¹ | ka C3 SNP1 P314L (human C3 P314L): 290000 M⁻¹ s⁻¹ | Storage stability, SEC 4 weeks at 25° C. [D %] [2]: 0.11 D % | Storage stability, SEC 4 weeks at 40° C. [D %] [2]: 1.59 D %
